Laboratory results: patent publication US20240018502
Residue numbers refer to the chain shown, from its start. In names and notes the source's numbering stands.

B1: Modified MTSP-1 protease domain Q38H/I41S/D60bT/F60eS/Y60gW/D96K/F97G/ins97aV/T98P/F99L/C122S/G151H/Q175L/Q192D (protein)
chain: VVGGTDADEGEWPWQVSLHALGHGHSCGASLISPNWLVSAAHCYIDTRGSRWSDPTQWTAFLGLHDQSQRSAPGVQERRLKRIISHPFFNKGVPLDYDIALLELEKPAEYSSMVRPISLPDASHVFPAGKAIWVTGWGHTQYGGTHALILQKGEIRVINQTTCENLLPQLITPRMMCVGFLSGGVDSCDGDSGGPLSSVEADGRIFQAGVVSWGDGCAQRNKPGVYTRLPLFRDWIKENTGV
B2: Q38H/I41S/D60bT/F60eS/Y60gW/D96V/F97G/ins97aV/T98P/F99L/C122S/G151H/Q175L/Q192D (protein)
chain: B1 chain with K91V
B3: Q38H/I41S/D60bT/F60eS/Y60gW/D96K/F97D/ins97aA/T98P/F99L/C122S/G151N/Q175L/Q192D (protein)
chain: B1 chain with G92D, V93A, H146N

Experiments:
[1] = biological target: cynomolgus monkey complement protein C3 (endogenous, in vitreous humor)
[2] = biological target: human complement protein C3
[3] = biological target: T1, quenched fluorescence peptidic substrate containing SKGR/SL (P4-P2' of the PAR-2 activation cleavage site, Ser 33 to Leu 38)
T1 chain: SKGRSL

[4] = biological target: complement protein C3 of cynomolgus monkey plasma

Row | Protein | C3 levels in vitreous humor by ELISA after one intravitreal dose of 125 ug [1] | ED50 of cleavage of human C3 [2] | anti-C3 activity, fold increase owed to D60bT (against the variant with this residue reverted to wild type) [2] | anti-C3 activity, fold increase owed to D96K (against the variant with this residue reverted to wild type) [2] | anti-C3 activity, fold increase owed to F60eS (against the variant with this residue reverted to wild type) [2] | anti-C3 activity, fold increase owed to F97G (against the variant with this residue reverted to wild type) [2] | anti-C3 activity, fold increase owed to F99L (against the variant with this residue reverted to wild type) [2] | anti-C3 activity, fold increase owed to G151H (against the variant with this residue reverted to wild type) [2] | anti-C3 activity, fold increase owed to I41S (against the variant with this residue reverted to wild type) [2] | anti-C3 activity, fold increase owed to Q38H (against the variant with this residue reverted to wild type) [2] | anti-C3 activity, fold increase owed to Q175L (against the variant with this residue reverted to wild type) [2] | anti-C3 activity, fold increase owed to T98P (against the variant with this residue reverted to wild type) [2] | anti-C3 activity, fold increase owed to Y60gW (against the variant with this residue reverted to wild type) [2] | anti-C3 activity, fold increase owed to the insertion 97aV (against the variant without the insertion) [2] | reduction of hemolytic activity (C3H50) after preincubation of C3 with the variant [2] | SKGR/SL kcat/Km [3] [M⁻¹ s⁻¹] | ED50 80% cynomolgus plasma (nM), C3 cleavage, C3 ELISA [4] [nM] | ED50 80% human plasma (60 min, nM), C3 cleavage [2] [nM]
1 | B1 | C3 was undetectable in the variant-treated eye 1, 2, 6, and 7 days after the single injection of the anti-C3 MTSP polypeptide | cleaves human C3 in the assay described herein with an ED50 of 2 nM | D60bT-This mutation increases anti-C3 activity by approximately 2.8-fold | D96K-This mutation increases anti-C3 activity by approximately 2.6-fold | F60eS-This mutation increases anti-C3 activity by approximately 1.9-fold | F97G-This mutation increases anti-C3 activity by approximately 4.3-fold and increases substrate specificity | F99L: This mutation increases anti-C3 activity by approximately 3.9-fold | G151H: This mutation increases anti-C3 activity by approximately 1.2-fold | I41S-This mutation increases anti-C3 activity by approximately 44.6-fold | Q38H-This mutation increases C3 activity by approximately 3.7-fold | Q175L: This mutation increases anti-C3 activity by approximately 4.3-fold | T98P: This mutation ... increases anti-C3 activity by approximately 2.2-fold | Y60gW-This mutation increases the enzyme's substrate specificity and increases anti-C3 activity by approximately 4.8-fold | Insert 97aV: This mutation ... increases anti-C3 activity by approximately 1.7-fold | reduces the hemolytic activity of the serum by approximately 80% |  |  | 
2 | B2 |  |  |  |  |  |  |  |  |  |  |  |  |  |  |  | 4990 | 103 | 27
3 | B3 |  |  |  |  |  |  |  |  |  |  |  |  |  |  |  | 2060 | 37 | 44
